{"source": "patent US20240252614A1", "about": "(Pfizer, published 2024)", "binders": {"B1": {"name": "PIV1-8 mAb (antibody, V domains shown)", "VH": "QVQLVQSGAEVKKPGSSVKVSCEASGGTFSNYVISWVRQAPGQGLEWMGGIIPVFATAKYAQKFQGRVTIIADQSTNTAYLELSSLRSDDTAVYFCASVDSGGTWWDAFAIWGQGTMVTVSS", "VL": "QAVVTQPRSVSGSPGQAVTISCTGTSSDVGGYNYVSWYQHHPGKAPKLIIYDVTKRPSGVPDRFSGSKSGNTASLTISGLQTEYEADYYCCSYAGSYTLVFGGGTKLTVLG", "notes": "human IgG1; also called hPIV1-8 mAb; hPIV1-8"}, "B2": {"name": "hMPV-2 mAb (antibody, V domains shown)", "VH": "QVQLQQSGAEVKKPGASVKVSCKASGYTFTSYGISWVRQAPGQGLEWMGWISGYNGNTNYAQTFQGTFTMTTDTSTSTAYMELRRLRSGDTAVYYCARDRYYASGSYNGMDVWGQGTTVTVSS", "VL": "QSALTQPPSASGAPGQRVTVSCSGSSSNVGSSSVYWYQQLPGTAPKLLIYRNNQRPSGVPDRFSGSKSGTSASLAISGLRSEDEADYYCAAWDDSLSGWVFGGGTKLTVLG", "notes": "human IgG1"}}, "key": {"PIV1039": {"biological_target": "T1, PIV1039 (PIV1)", "T1 construct": "A128P", "test": "BLI, 50C stress;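 also: binding of thermally stressed PIV1 F mutant supernatant to mAb on AHC biosensors for 5 min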", "experimental": "(§1) All measurements were conducted at 30° C. temperature in 96-well black plates (Corning, Corning, NY) with a final volume of 240 μL per well at a constant agitation rate of 1000 RPM.\n(§2) Conformation integrity of PIV1 F protein mutants were evaluated by a thermal stress experiment. Crude cell culture supernatants were normalized based on the results of the titer quantitation and then incubated for 1 hour at room temperature and two higher temperatures. For the initial testing of PIV1 mutants, the two temperatures were 50° C. and 53° C. […] Anti-Human IgG Fc Capture (AHC) biosensors were first equilibrated in PB for before being dipped into more PB to establish the initial baseline. […] The mAb-bound biosensors were then dipped into the thermal stresses cell culture supernatants for 5 minutes."}, "PIV1031": {"biological_target": "T2, PIV1031 (PIV1)", "T2 construct": "A466L, S473L", "test": "BLI, 50C stress", "experimental": "as §1, §2"}, "PIV1014": {"biological_target": "T3, PIV1014 (PIV1)", "T3 construct": "Q92C-G134C", "test": "BLI, 50C stress", "experimental": "as §1, §2"}, "PIV1027": {"biological_target": "T4, PIV1027 (PIV1)", "T4 construct": "S473L", "test": "BLI, 50C stress", "experimental": "as §1, §2"}, "PIV1024": {"biological_target": "T5, PIV1024 (PIV1)", "T5 construct": "A466V", "test": "BLI, 50C stress", "experimental": "as §1, §2"}, "PIV1023": {"biological_target": "T6, PIV1023 (PIV1)", "T6 construct": "A466L", "test": "BLI, 50C stress", "experimental": "as §1, §2"}, "PIV1028": {"biological_target": "T7, PIV1028 (PIV1)", "T7 construct": "A480L", "test": "BLI, 50C stress", "experimental": "as §1, §2"}, "PIV1036": {"biological_target": "T8, PIV1036 (PIV1)", "T8 construct": "G134A", "test": "BLI, 50C stress", "experimental": "as §1, §2"}, "PIV1026": {"biological_target": "T9, PIV1026 (PIV1)", "T9 construct": "S473V", "test": "BLI, 50C stress", "experimental": "as §1, §2"}, "PIV1033": {"biological_target": "T10, PIV1033 (PIV1)", "T10 construct": "T198A", "test": "BLI, 50C stress", "experimental": "as §1, §2"}, "PIV1030": {"biological_target": "T11, PIV1030 (PIV1)", "T11 construct": "A466L, S473A", "test": "BLI, 50C stress", "experimental": "as §1, §2"}, "PIV1042": {"biological_target": "T12, PIV1042 (PIV1)", "T12 construct": "Q92A", "test": "BLI, 53C stress", "experimental": "as §1, §2"}, "PIV1043": {"biological_target": "T13, PIV1043 (PIV1)", "T13 construct": "Q92A, G134A", "test": "BLI, 53C stress", "experimental": "as §1, §2"}, "PIV1044": {"biological_target": "T14, PIV1044 (PIV1)", "T14 construct": "Q92L", "test": "BLI, 53C stress", "experimental": "as §1, §2"}, "PIV1046": {"biological_target": "T15, PIV1046 (PIV1)", "T15 construct": "A466V, S473V", "test": "BLI, 53C stress", "experimental": "as §1, §2"}, "PIV1045": {"biological_target": "T16, PIV1045 (PIV1)", "T16 construct": "Q92L, G134A", "test": "BLI, 53C stress", "experimental": "as §1, §2"}, "hMPV077": {"biological_target": "T17, hMPV077 (hMPV A, UniProt Q6WB98 19-102)", "T17 construct": "Q476C, S477C", "test": "BLI, no stress", "experimental": "(§3) The OCTET HTX (Sartorius, Gottingen, Germany) instrument was used to evaluate the expression and conformational integrity for each mutant. All measurements were conducted at 30° C. temperature in 96-well black plates (Corning, Corning, NY) with a final volume of 240 μL per well at a constant agitation rate of 1000 RPM.\n(§4) Conformation integrity of hMPV A F protein mutants were evaluated by thermal stress experiments. Crude cell culture supernatants were normalized based on the results of the titer quantitation and then incubated for 1 hour at room temperature and two higher temperatures. […] Anti-Human IgG Fc Capture (AHC) biosensors were first equilibrated in PB before being dipped into more PB to establish the initial baseline. […] The mAb-bound biosensors were then dipped into the thermal stressed cell culture supernatants for 5 minutes. The kinetics analysis was done by OCTET data analysis software (version 12.0, Sartorius) based on curve fitting of the entire associate step."}, "hMPV046": {"biological_target": "T18, hMPV046 (hMPV A, UniProt Q6WB98 19-102)", "T18 construct": "A140C-S149C", "test": "BLI, no stress", "experimental": "as §3, §4"}, "hMPV054": {"biological_target": "T19, hMPV054 (hMPV A, UniProt Q6WB98 19-102)", "T19 construct": "S132P", "test": "BLI, no stress", "experimental": "as §3, §4"}, "hMPV059": {"biological_target": "T20, hMPV059 (hMPV A, UniProt Q6WB98 19-102)", "T20 construct": "V449P", "test": "BLI, no stress", "experimental": "as §3, §4"}, "hMPV131": {"biological_target": "T21, hMPV131 (hMPV B, UniProt Q6WB98 19-102)", "T21 construct": "T49I, L141C-A161C, G239A, T411C-Q434C, A459P", "test": "BLI, no stress"}, "hMPV137": {"biological_target": "T22, hMPV137 (hMPV B, UniProt Q6WB98 19-102)", "T22 construct": "T49I, A140C-S149C", "test": "BLI, no stress"}, "hMPV135": {"biological_target": "T23, hMPV135 (hMPV B, UniProt Q6WB98 19-102)", "T23 construct": "T49I, S149T, A459P", "test": "BLI, no stress"}, "hMPV120": {"biological_target": "T24, hMPV120 (hMPV B, UniProt Q6WB98 19-102)", "T24 construct": "A140C-S149C, T411C-Q434C", "test": "BLI, no stress"}, "hMPV B F WT Control [1]": {"biological_target": "T25, hMPV B F WT Control (hMPV B, UniProt Q6WB98 19-102)", "test": "BLI, no stress"}, "hMPV130": {"biological_target": "T26, hMPV130 (hMPV B, UniProt Q6WB98 19-102)", "T26 construct": "L141C-A161C, G239A, T411C-Q434C, A459P", "test": "BLI, no stress"}, "hMPV123": {"biological_target": "T27, hMPV123 (hMPV B, UniProt Q6WB98 19-102)", "T27 construct": "A140C-S149C, G239A, T411C-Q434C", "test": "BLI, no stress"}, "hMPV122": {"biological_target": "T28, hMPV122 (hMPV B, UniProt Q6WB98 19-102)", "T28 construct": "A140C-S149C, T411C-Q434C, A459P", "test": "BLI, no stress"}, "hMPV126": {"biological_target": "T29, hMPV126 (hMPV B, UniProt Q6WB98 19-102)", "T29 construct": "T49I, T150C-R156C, G239A, A459P", "test": "BLI, no stress"}, "hMPV107": {"biological_target": "T30, hMPV107 (hMPV B, UniProt Q6WB98 19-102)", "T30 construct": "S149T", "test": "BLI, 53C stress", "experimental": "as §1\n(§5) Conformation integrity of hMPV B F protein mutants were evaluated by a thermal stress experiment. Crude cell culture supernatants were normalized based on the results of the titer quantitation and then incubated for 1 hour at room temperature and two higher temperatures. For the testing of hMPV B single mutants, the two temperatures were 53° C. and 56° C. After the incubation, the protein mutants were probed with prefusion specific monoclonal antibody hMPV-2 by OCTET HTX. Anti-Human IgG Fc Capture (AHC) biosensors were first equilibrated in PB before being dipped into more PB for to establish the initial baseline. Biosensors were incubated with hMPV-2 before being equilibrated in PB to establish the experimental baseline. The mAb-bound biosensors were then dipped into the thermal stresses cell culture supernatants for 5 minutes."}, "hMPV102": {"biological_target": "T31, hMPV102 (hMPV B, UniProt Q6WB98 19-102)", "T31 construct": "L141C-A161C", "test": "BLI, 53C stress", "experimental": "as §1, §5"}, "hMPV106": {"biological_target": "T32, hMPV106 (hMPV B, UniProt Q6WB98 19-102)", "T32 construct": "T49I", "test": "BLI, 53C stress", "experimental": "as §1, §5"}, "hMPV100": {"biological_target": "T33, hMPV100 (hMPV B, UniProt Q6WB98 19-102)", "T33 construct": "T411C-Q434C", "test": "BLI, 53C stress", "experimental": "as §1, §5"}, "hMPV108": {"biological_target": "T34, hMPV108 (hMPV B, UniProt Q6WB98 19-102)", "T34 construct": "T365I", "test": "BLI, 53C stress", "experimental": "as §1, §5"}, "hMPV B F WT Control [2]": {"biological_target": "T25, hMPV B F WT Control", "test": "BLI, 53C stress", "experimental": "as §1, §5"}, "hMPV103": {"biological_target": "T35, hMPV103 (hMPV B, UniProt Q6WB98 19-102)", "T35 construct": "E146C-T160C", "test": "BLI, 53C stress", "experimental": "as §1, §5"}, "hMPV104": {"biological_target": "T36, hMPV104 (hMPV B, UniProt Q6WB98 19-102)", "T36 construct": "A459P", "test": "BLI, 53C stress", "experimental": "as §1, §5"}, "hMPV105": {"biological_target": "T37, hMPV105 (hMPV B, UniProt Q6WB98 19-102)", "T37 construct": "G239A", "test": "BLI, 53C stress", "experimental": "as §1, §5"}, "hMPV101": {"biological_target": "T38, hMPV101 (hMPV B, UniProt Q6WB98 19-102)", "T38 construct": "A140C-S149C", "test": "BLI, 53C stress", "experimental": "as §1, §5"}}}
{"binder": "B1", "values": [{"measurement": "Response Shift", "setting": "PIV1039", "value": -0.039, "unit": "nm"}, {"measurement": "Response Shift", "setting": "PIV1031", "value": 0.72, "unit": "nm"}, {"measurement": "Response Shift", "setting": "PIV1014", "value": 0.011, "unit": "nm"}, {"measurement": "Response Shift", "setting": "PIV1027", "value": -0.022, "unit": "nm"}, {"measurement": "Response Shift", "setting": "PIV1024", "value": 0.022, "unit": "nm"}, {"measurement": "Response Shift", "setting": "PIV1023", "value": 0.018, "unit": "nm"}, {"measurement": "Response Shift", "setting": "PIV1028", "value": -0.018, "unit": "nm"}, {"measurement": "Response Shift", "setting": "PIV1036", "value": 0.007, "unit": "nm"}, {"measurement": "Response Shift", "setting": "PIV1026", "value": -0.022, "unit": "nm"}, {"measurement": "Response Shift", "setting": "PIV1033", "value": -0.027, "unit": "nm"}, {"measurement": "Response Shift", "setting": "PIV1030", "value": -0.031, "unit": "nm"}, {"measurement": "Response Shift", "setting": "PIV1042", "value": -0.052, "unit": "nm"}, {"measurement": "Response Shift", "setting": "PIV1043", "value": -0.012, "unit": "nm"}, {"measurement": "Response Shift", "setting": "PIV1044", "value": -0.007, "unit": "nm"}, {"measurement": "Response Shift", "setting": "PIV1046", "value": -0.059, "unit": "nm"}, {"measurement": "Response Shift", "setting": "PIV1045", "value": -0.054, "unit": "nm"}]}
{"binder": "B2", "values": [{"measurement": "Response Shift", "setting": "hMPV077", "value": 0.751, "unit": "nm"}, {"measurement": "Response Shift", "setting": "hMPV046", "value": 0.573, "unit": "nm"}, {"measurement": "Response Shift", "setting": "hMPV054", "value": 0.682, "unit": "nm"}, {"measurement": "Response Shift", "setting": "hMPV059", "value": 0.719, "unit": "nm"}, {"measurement": "Response Shift", "setting": "hMPV131", "value": 0.727, "unit": "nm"}, {"measurement": "Response Shift", "setting": "hMPV137", "value": 0.663, "unit": "nm"}, {"measurement": "Response Shift", "setting": "hMPV135", "value": 0.73, "unit": "nm"}, {"measurement": "Response Shift", "setting": "hMPV120", "value": 0.593, "unit": "nm"}, {"measurement": "Response Shift", "setting": "hMPV B F WT Control [1]", "value": 0.82, "unit": "nm"}, {"measurement": "Response Shift", "setting": "hMPV130", "value": 0.71, "unit": "nm"}, {"measurement": "Response Shift", "setting": "hMPV123", "value": 0.619, "unit": "nm"}, {"measurement": "Response Shift", "setting": "hMPV122", "value": 0.73, "unit": "nm"}, {"measurement": "Response Shift", "setting": "hMPV126", "value": 0.773, "unit": "nm"}, {"measurement": "Response Shift", "setting": "hMPV107", "value": 0.846, "unit": "nm"}, {"measurement": "Response Shift", "setting": "hMPV102", "value": 0.572, "unit": "nm"}, {"measurement": "Response Shift", "setting": "hMPV106", "value": 0.828, "unit": "nm"}, {"measurement": "Response Shift", "setting": "hMPV100", "value": 0.854, "unit": "nm"}, {"measurement": "Response Shift", "setting": "hMPV108", "value": 0.802, "unit": "nm"}, {"measurement": "Response Shift", "setting": "hMPV B F WT Control [2]", "value": 0.418, "unit": "nm"}, {"measurement": "Response Shift", "setting": "hMPV103", "value": 0.588, "unit": "nm"}, {"measurement": "Response Shift", "setting": "hMPV104", "value": 0.336, "unit": "nm"}, {"measurement": "Response Shift", "setting": "hMPV105", "value": 0.785, "unit": "nm"}, {"measurement": "Response Shift", "setting": "hMPV101", "value": 0.716, "unit": "nm"}]}
